Assay results taken from publication PMC3594540.

Key:
[1] = biological target: murine Gαq (residues 7–359), biotinylated for bead binding (murine) (UniProt P21279); test: flow cytometry protein interaction assay
PLCβ3-Δ892 (human) = PLCβ3-Δ892 (human) (UniProt Q01970)
Gαq K311A (murine) = Gαq K311A (murine) (UniProt P21279); test: flow cytometry protein interaction assay
PLCβ3-Δ892 T652E (human) = PLCβ3-Δ892 T652E (human) (UniProt Q01970)
Gαq-ΔN (murine) = Gαq-ΔN (murine) (UniProt P21279); test: flow cytometry protein interaction assay
Chain of Gαq-ΔN (murine) (P21279 37-359, stated change not applied): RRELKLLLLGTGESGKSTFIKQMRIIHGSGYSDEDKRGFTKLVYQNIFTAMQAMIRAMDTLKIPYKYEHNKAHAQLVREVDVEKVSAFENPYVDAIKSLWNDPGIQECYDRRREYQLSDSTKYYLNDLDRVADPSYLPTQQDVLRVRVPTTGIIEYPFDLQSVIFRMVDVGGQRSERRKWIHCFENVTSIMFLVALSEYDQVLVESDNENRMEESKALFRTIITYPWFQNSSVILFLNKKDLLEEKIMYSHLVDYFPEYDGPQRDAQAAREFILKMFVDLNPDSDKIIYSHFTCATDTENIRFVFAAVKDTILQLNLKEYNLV

Gαq D296A P298D (murine) = Gαq D296A P298D (murine) (UniProt P21279); test: flow cytometry protein interaction assay
Chain of Gαq D296A P298D (murine) (P21279 7-359 D296A/P298D): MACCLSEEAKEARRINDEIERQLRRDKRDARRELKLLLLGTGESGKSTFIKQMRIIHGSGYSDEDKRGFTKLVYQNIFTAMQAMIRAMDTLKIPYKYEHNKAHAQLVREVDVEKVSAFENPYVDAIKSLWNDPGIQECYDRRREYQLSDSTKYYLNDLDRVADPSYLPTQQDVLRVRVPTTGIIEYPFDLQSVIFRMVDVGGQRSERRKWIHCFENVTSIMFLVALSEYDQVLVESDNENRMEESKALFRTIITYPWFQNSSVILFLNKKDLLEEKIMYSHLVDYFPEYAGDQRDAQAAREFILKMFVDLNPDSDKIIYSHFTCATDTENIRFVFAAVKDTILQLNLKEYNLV

Chain of Gαq K311A (murine) (P21279 7-359 K311A): as the sequence (P21279 7-359 D296A/P298D) above, with A290D, D292P, K305A counted along it
Chain of murine Gαq (residues 7–359), biotinylated for bead binding (murine) (P21279 7-359): as the sequence (P21279 7-359 D296A/P298D) above, with A290D, D292P counted along it
Chain of murine Gαq (residues 7–359), biotinylated for bead binding (P21279 7-359): as the sequence (P21279 7-359 D296A/P298D) above, with A290D, D292P counted along it
Chain of Gαq-ΔN (P21279 37-359, stated change not applied): as the sequence (P21279 37-359, stated change not applied) above

Row | Substance | EC50 of Gαq-stimulated PIP2 hydrolysis ([3H]-IP3 release from liposomes) (PLCβ3-Δ892 (human)) [nM] | Ki [1] [nM] | further results
1 | AF488-labeled PLCβ3-Δ892 R872A L876A L879A (from UniProt Q01970 10-892) (domain or fragment) |  |  | Kd [1]: 40 nM
2 | Gαq K311A (from UniProt P21279 7-359) (natural protein) | 150 |  | 
3 | human PLCβ3 (residues 10–1234) (from UniProt Q01970 10-1234) (enzyme) |  |  | Ki (Gαq K311A (murine)): 260 nM
4 | PLCβ3-Δ892 T652E (from UniProt Q01970 10-892) (domain or fragment) |  | 250 | 
5 | Gαq D296A P298D (from UniProt P21279 7-359) (natural protein) | 540 |  | 
6 | PLCβ3 I1129E V1133E I1136E triple mutant (from UniProt Q01970) (enzyme) |  | 93 | Ki (Gαq-ΔN (murine)): 78 nM
7 | PLCβ3 L876A EEE (from UniProt Q01970) (enzyme) |  | 26 | Ki (Gαq-ΔN (murine)): 42 nM
8 | PLCβ3-Δ882-937 (from UniProt Q01970 10-1234) (enzyme) |  | 230 | 
9 | Gαq-ΔN (from UniProt P21279 37-359) (domain or fragment) | 59 |  | 

The next lines start with results.

Row | EC50 of Gαq-stimulated PIP2 hydrolysis ([3H]-IP3 release from liposomes) (PLCβ3-Δ892 (human)) [nM] | Ki [1] [nM] | Substance | further results
10 | 150 |  | Gαq C9S C10S (from UniProt P21279 7-359) (natural protein) | 
11 | 59 |  | murine Gαq (residues 7–359), biotinylated for bead binding (from UniProt P21279 7-359) (natural protein) | EC50 of Gαq-stimulated PIP2 hydrolysis ([3H]-IP3 release from liposomes) (PLCβ3-Δ892 T652E (human)): 250 nM
12 |  | 12 | PLCβ3-Δ882-937 L876A (from UniProt Q01970 10-1234) (enzyme) | 
13 |  | 160 | PLCβ3 T652E (from UniProt Q01970) (enzyme) | 
14 |  | 490 | PLCβ3-Δ892 (from UniProt Q01970 10-892) (domain or fragment) | Ki (Gαq D296A P298D (murine)): 420 nM; Ki (Gαq-ΔN (murine)): 490 nM; Ki (Gαq K311A (murine)): 380 nM
15 |  | 20 | PLCβ3 L876A (from UniProt Q01970 10-1234) (enzyme) | Ki (Gαq D296A P298D (murine)): 12 nM; Ki (Gαq-ΔN (murine)): 24 nM; Ki (Gαq K311A (murine)): 16 nM
